Experiment [1] concerns the target IL-11 protein (UniProt P20809). Kind of experiment: ELISA, purchased IL-11 antibody (Abcam, ab130083) on IL-11, positive control. Background: An ELISA detects its analyte on a solid surface through an enzyme-linked reagent.
Experiment [2] has as its target IL-11-Fc protein (UniProt P20809). Kind of experiment: competition ELISA: IL-11R-His coated, IL-11-Fc co-incubated with a concentration gradient of the antibody, detection with HRP goat anti-IgG-Fc; blocked partner IL-11R-His.

IL-11-Fc protein, sequence (P20809 22-199 limits assumed): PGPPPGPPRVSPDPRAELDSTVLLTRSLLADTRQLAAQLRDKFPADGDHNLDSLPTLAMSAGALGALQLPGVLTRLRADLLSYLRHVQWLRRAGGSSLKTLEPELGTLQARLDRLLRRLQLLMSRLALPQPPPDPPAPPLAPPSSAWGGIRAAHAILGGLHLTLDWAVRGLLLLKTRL
IL-11 protein, sequence (P20809 22-199 limits assumed): as above

As for 6D9A1 (Abcam, ab130083) (antibody), in experiment [1], the OD(450 nm) value came to 3.62. In addition, the IC50 (read off the curve) in experiment [2] was 1 µg/mL.

(Values after patent US20230257458A1.)
